Test results as given in paper PMC7367873, “Dissecting the sequence determinants for dephosphorylation by the catalytic subunits of phosphatases PP1 and PP2A” (Nature Communications, 2020).

B1: XPOT (protein, UniProt O43592 1-962, looked up)
Exportin-T: MDEQALLGLNPNADSDFRQRALAYFEQLKISPDAWQVCAEALAQRTYSDDHVKFFCFQVLEHQVKYKYSELTTVQQQLIRETLISWLQAQMLNPQPEKTFIRNKAAQVFALLFVTEYLTKWPKFFFDILSVVDLNPRGVDLYLRILMAIDSELVDRDVVHTSEEARRNTLIKDTMREQCIPNLVESWYQILQNYQFTNSEVTCQCLEVVGAYVSWIDLSLIANDRFINMLLGHMSIEVLREEACDCLFEVVNKGMDPVDKMKLVESLCQVLQSAGFFSIDQEEDVDFLARFSKLVNGMGQSLIVSWSKLIKNGDIKNAQEALQAIETKVALMLQLLIHEDDDISSNIIGFCYDYLHILKQLTVLSDQQKANVEAIMLAVMKKLTYDEEYNFENEGEDEAMFVEYRKQLKLLLDRLAQVSPELLLASVRRVFSSTLQNWQTTRFMEVEVAIRLLYMLAEALPVSHGAHFSGDVSKASALQDMMRTLVTSGVSSYQHTSVTLEFFETVVRYEKFFTVEPQHIPCVLMAFLDHRGLRHSSAKVRSRTAYLFSRFVKSLNKQMNPFIEDILNRIQDLLELSPPENGHQSLLSSDDQLFIYETAGVLIVNSEYPAERKQALMRNLLTPLMEKFKILLEKLMLAQDEERQASLADCLNHAVGFASRTSKAFSNKQTVKQCGCSEVYLDCLQTFLPALSCPLQKDILRSGVRTFLHRMIICLEEEVLPFIPSASEHMLKDCEAKDLQEFIPLINQITAKFKIQVSPFLQQMFMPLLHAIFEVLLRPAEENDQSAALEKQMLRRSYFAFLQTVTGSGMSEVIANQGAENVERVLVTVIQGAVEYPDPIAQKTCFIILSKLVELWGGKDGPVGFADFVYKHIVPACFLAPLKQTFDLADAQTVLALSECAVTLKTIHLKRGPECVQYLQQEYLPSLQVAPEIIQEFCQALQQPDAKVFKNYLKVFFQRAKP
B2: COBL (protein, UniProt O75128 1-1261, looked up)
Protein cordon-bleu: MDAPRASAAKPPTGRKMKARAPPPPGKAATLHVHSDQKPPHDGALGSQQNLVRMKEALRASTMDVTVVLPSGLEKRSVLNGSHAMMDLLVELCLQNHLNPSHHALEIRSSETQQPLSFKPNTLIGTLNVHTVFLKEKVPEEKVKPGPPKVPEKSVRLVVNYLRTQKAVVRVSPEVPLQNILPVICAKCEVSPEHVVLLRDNIAGEELELSKSLNELGIKELYAWDNRRETFRKSSLGNDETDKEKKKFLGFFKVNKRSNSKGCLTTPNSPSMHSRSLTLGPSLSLGSISGVSVKSEMKKRRAPPPPGSGPPVQDKASEKVSLGSQIDLQKKKRRAPAPPPPQPPPPSPLIPNRTEDKEENRKSTMVSLPLGSGSHCSPDGAPQVLSEAEETVSVGSCFASEDTTEDSGVMSSPSDIVSLDSQQDSMKYKDKWATDQEDCSDQDLAGTPDLGPQKSPLWEKNGSENSHLRTEKAVTASNDEEDLLIAGEFRKTLAELDEDLEEMEDSYETDTSSLTSSIHGASNHCPQDAMIPHGDTDAIPVTFIGEVSDDPVDSGLFSNRNNNAGSFDSEGVASRRDSLAPLQAEHSQPHEKAREEVPALHPASHDVGKGIRVALSNISKDGNLMETAPRVTSFASNLHTDNLNAKVKDKVYGCADGERTQATERVNSQPVNEKDSNDKNAALAPTSWHQRGQNPGKSYRLKHGLTTYKIIPPKSEMRCYDRDVSLSTGAIKIDELGNLVSPHATGIRIISLSSSVPEAESQPIGKVREFWRCNSVEKHLGRPSESSARGPPSTPVPTQTQNPESRLQADPKPISPQQKSAHHEGRNPLGEGRNQPPTMGMGHVRVPAAHTTEVTFLKPQRRTSSQYVASAIAKRIGAPKVHADVVRPHGYAEKGYAGKAPVLAAPPVTVKDDRTSSPHSETQGWKDGAQWPCVTPPNNHGEDLAVGAPPRGEVIGPHRKLSTQDRPAAIHRSSCFSLVQSSQRDRVSVGQSCGFSGKQSTSSQEASSASEPRRAPDGTDPPPPHTSDTQACSRELVNGSVRAPGHGEPSHPPGGSGTESHILLEREEKPSVFSTDGNETDSIWPPSIFGPKKKFKPVVQRPVPKDTSLHSALMEAIHSAGGKDRLRKTAEHTGEGRPAKLSYTEAEGERSALLAAIRGHSGTCSLRKVASSASEELQSFRDAALSAQGSESPLLEDLGLLSPPAIPPPPPPPSQALSAPRTASRFSTGTLSNTADARQALMDAIRSGTGAARLRKVPLLV

What was measured:
[1] = system: GFP-14-3-3β and its binding proteins; assay: GFP-14-3-3β co-IP with LC-MS/MS label-free quantification, untreated versus PP1c-treated; design: species or system human; conditions: GFP-14-3-3β co-IP LC-MS/MS; PP1 vs untreated; student's t-test; label-free quantification, 3 replicates each
GFP-14-3-3β = GFP-14-3-3β co-IP with LC-MS/MS, untreated GFP-14-3-3β versus GFP control (14-3-3 interactome); format: binding, human; conditions: GFP-14-3-3β co-IP LC-MS/MS; untreated vs GFP; student's t-test; label-free quantification, 3 replicates each

Molecule	Difference (log2), PP1 vs untreated [1]	Difference (log2), untreated vs GFP (GFP-14-3-3β)
B1	-0.251 log2	1.37 log2
B2	-0.2795 log2	-0.6052 log2
